Results on three substances are retold here after EP0830146B1.

The target in assay [1] is human CD3 on Jurkat cells (human) (UniProt P07766). Put plainly: competition with 125I-UCHT1 tracer on Jurkat cells; competitor at 100 nM.
Assay [2] has the same target. Put plainly: competition with 125I-UCHT1 tracer on Jurkat cells; competitor at 1 nM.
Assay [3] shares this target. Put plainly: cell-based or functional assay.

For scUCHT1 (from UniProt P01871 106-453), the % of 125I-UCHT1 bound in assay [1] was 0%; in assay [2] it was 80%.

On to UCHT1 (antibody), for which the % of 125I-UCHT1 bound was 0% in assay [1] and 80% in assay [2].

In assay [3], sFv-DT390 (from UniProt P00588 1-390) returned a difference in IC50 against UCHT1-CRM9, protein synthesis inhibition of 16 fold and a protein synthesis (% of controls), no serum, 1 x 10^-10 M on Jurkat cells (% of controls) of 18.
